Article PMC9728937
pKd: −log10 of the molar value.

Target: FgSnt1^1-744-GST (Fusarium graminearum)
Experiment: ITC
Details: enzyme

Cpk1-HIS
pKd: 6.61
